The text below walks through data of PMC8390522, “The phototroph-specific β-hairpin structure of the γ subunit of FoF1-ATP synthase is important for efficient ATP synthesis of cyanobacteria” (The Journal of Biological Chemistry, 2021).

This series concerns the molecule itself. Put plainly: SDS-PAGE with immunoblot (oligomer resistant to SDS); purified FoF1 on 16% polyacrylamide gels, immunoblot with anti-c-subunit antibodies; the c subunit runs as a ring above the α subunit.

B1: c subunit of FoF1 ATP synthase of Synechocystis sp. PCC 6803 (natural protein, Synechocystis sp. PCC 6803 (endogenous), UniProt P27182 1-81, looked up)
chain: MDSTVAAASVIAAALAVGLGAIGPGIGQGNASGQAVSGIARQPEAEGKIRGTLLLTLAFMESLTIYGLVIALVLLFANPFA
notes: ATP synthase c subunit, Synechocystis sp; Forms the c-ring; also called ssl2615; c-ring; source: endogenous, Synechocystis sp
With B1, the binding result is “binds”.
